Target: Argonaute 2 (AGO2) (human (Homo sapiens), UniProt Q9UKV8 1-859)
Experiment: northern blot of purified loaded AGO2

Argonaute 2 (AGO2), sequence (Q9UKV8 whole entry): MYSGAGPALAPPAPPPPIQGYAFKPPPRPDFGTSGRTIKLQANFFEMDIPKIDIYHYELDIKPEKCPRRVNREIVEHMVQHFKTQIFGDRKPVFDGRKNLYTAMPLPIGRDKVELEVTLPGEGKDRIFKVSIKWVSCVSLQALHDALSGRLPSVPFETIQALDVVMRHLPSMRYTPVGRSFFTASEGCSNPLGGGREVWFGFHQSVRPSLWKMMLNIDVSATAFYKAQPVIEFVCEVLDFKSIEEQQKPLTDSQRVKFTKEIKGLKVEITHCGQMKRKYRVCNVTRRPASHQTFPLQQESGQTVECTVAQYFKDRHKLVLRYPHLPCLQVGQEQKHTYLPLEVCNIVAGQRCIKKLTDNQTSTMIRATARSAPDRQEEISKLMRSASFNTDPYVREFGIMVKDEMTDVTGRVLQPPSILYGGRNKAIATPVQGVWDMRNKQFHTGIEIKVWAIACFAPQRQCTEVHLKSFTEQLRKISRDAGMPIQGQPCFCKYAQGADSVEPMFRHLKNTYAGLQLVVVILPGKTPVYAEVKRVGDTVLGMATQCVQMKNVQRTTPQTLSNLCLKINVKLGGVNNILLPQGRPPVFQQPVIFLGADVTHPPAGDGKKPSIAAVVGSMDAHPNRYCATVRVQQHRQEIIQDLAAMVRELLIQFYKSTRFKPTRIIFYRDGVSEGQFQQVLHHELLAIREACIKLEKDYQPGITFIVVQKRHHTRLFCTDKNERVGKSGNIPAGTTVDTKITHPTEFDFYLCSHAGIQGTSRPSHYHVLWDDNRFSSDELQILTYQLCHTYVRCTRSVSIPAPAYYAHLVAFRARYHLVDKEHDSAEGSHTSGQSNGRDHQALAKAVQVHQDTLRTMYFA

UGGCAGUGUCUUAGCUGGUUGU (ssRNA) [miR-34a]: binds.
